Experimental findings from CN114262377A (XINJIANG YOUMAI BIOTECHNOLOGY CO LTD, dated 2022) are described below.

One experiment has as its target T1, CD70 on 卵巢癌细胞SKOV3 (UniProt P32970 1-193, limits assumed).
T1 construct: whole, on cells; also called 肿瘤细胞
T1 sequence (looked up): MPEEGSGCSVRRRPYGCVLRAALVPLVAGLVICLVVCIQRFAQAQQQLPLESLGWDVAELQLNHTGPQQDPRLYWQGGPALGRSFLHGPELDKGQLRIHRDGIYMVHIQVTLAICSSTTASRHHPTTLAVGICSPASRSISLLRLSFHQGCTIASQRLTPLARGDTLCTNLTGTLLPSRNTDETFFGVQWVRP
Nature of the experiment: flow cytometry (MFI) on SKOV3 cells, goat anti-human IgG Fc-FITC. Background: Flow cytometry measures light scatter and fluorescence of single cells or particles in a stream.

In experiment [1] the target is T2, human CD70-His (human, UniProt P32970 39-193, limits assumed).
T2 construct: also called 重组CD70蛋白; human CD70-His (Cat#CDL-H82D7); not shown: His tag
T2 sequence (looked up): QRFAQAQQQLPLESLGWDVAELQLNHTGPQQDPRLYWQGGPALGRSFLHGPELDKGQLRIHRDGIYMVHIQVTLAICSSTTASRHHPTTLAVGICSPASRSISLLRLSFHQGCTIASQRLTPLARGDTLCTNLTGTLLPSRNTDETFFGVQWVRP
The experiment is described as follows: BLI (Fortebio), AHC sensor, antibody loaded at 4 ug/ml, human CD70-His trimer 60 nM in solution.

Experiment [2] addresses T2, human CD70-His. The experiment is described as follows: ELISA, human CD70-His coated 0.5 ug/ml, HRP-anti-human Fc.
The target in another experiment is T3, mFc-CD70.
T3 sequence (P32970 whole entry, species assumed, looked up): T1 sequence (looked up)
The experiment is described as follows: competition ELISA: blocks mFc-CD70 (75 ng/ml) binding to coated human CD27-His.

The next experiment has as its target T4, mouse CD70-His (mouse, UniProt O55237 45-195, limits assumed).
T4 construct: also called 鼠CD70; not shown: His tag
T4 sequence (looked up): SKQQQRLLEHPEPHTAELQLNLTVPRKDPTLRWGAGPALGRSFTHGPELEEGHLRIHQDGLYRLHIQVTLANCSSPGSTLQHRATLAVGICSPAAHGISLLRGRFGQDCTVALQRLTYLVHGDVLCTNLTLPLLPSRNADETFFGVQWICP
The experiment is described as follows: ELISA, mouse CD70-His coated 0.5 ug/ml, HRP-anti-human Fc. For orientation: An ELISA detects its analyte on a solid surface through an enzyme-linked reagent.

The next experiment deals with T5, cyno-CD70-His (cynomolgus monkey, UniProt A0A2K5WTU9 39-190).
T5 construct: also called 食蟹猴CD70蛋白; 猴CD70; not shown: His tag
T5 sequence: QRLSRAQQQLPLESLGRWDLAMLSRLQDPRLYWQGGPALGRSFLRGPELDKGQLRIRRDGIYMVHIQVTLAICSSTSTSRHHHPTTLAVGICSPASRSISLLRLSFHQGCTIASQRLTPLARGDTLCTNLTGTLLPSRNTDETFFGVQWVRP
Nature of the experiment: ELISA, cyno-CD70-His coated 0.5 ug/ml, HRP-anti-human Fc.

Some results are limits rather than exact numbers.

B1: CHO细胞表达的含有人IgG-Fc结构域的CD70纳米抗体VHH-B3-Fc (Fc fusion)
chain: LQESGGGSVQAGGSLRLSCAASGIIVNDGCMAWFRQVPGKEREGVAGIVIGEYGGGTTYYADSVKGRFTISRDRAKNTLYLQMNSLKPEDTAMYYCAADQWASGGCTSIATFSDEFDYWGQGTQVTVSS
notes: Order VHH then Fc follows the printed name; also called XJ-B3; VHH-B3 (as named in the results of the Fc-format assays); not shown: human IgG Fc domain
For the molecule B1, the EC50 with CD70 on 卵巢癌细胞SKOV3 came to 0.374 nM; in the experiment with human CD70-His [2] it was 0.0251 µg/mL. Besides, the Kd with human CD70-His [1] was less than 0.001 nM. In the experiment with mFc-CD70, this molecule gave a half-maximal inhibitory concentration (IC50) of 0.06 µg/mL. Moreover, the binding result with mouse CD70-His is on record as “no binding”.

B2: CHO细胞表达的含有人IgG-Fc结构域的CD70纳米抗体VHH-B6-Fc (Fc fusion)
chain: QVQLQESGGGSVQAGGSLRLSCVASDLIVNDGCMAWFRQVPGKEHEGVARIAIPTTPGSTLYADSVKGRFTISRDGAKNTLYLQMNSLKPEDTAVYYCAADQWASRGCTAIATIPAEFDYWGQGTQVTVSS
notes: Order VHH then Fc follows the printed name; also called XJ-B6; VHH-B6 (as named in the results of the Fc-format assays); not shown: human IgG Fc domain
B2: the EC50 with CD70 on 卵巢癌细胞SKOV3 amounted to 1.74 nM; in the experiment with human CD70-His [2] it was 0.0244 µg/mL; with cyno-CD70-His, 0.00571 µg/mL. In the experiment with human CD70-His [1], the Kd was less than 0.001 nM. This molecule gave an IC50 with mFc-CD70 of 0.0576 µg/mL. For the same molecule, the binding result with mouse CD70-His is listed as “no binding”.

Usually EC50 stands for the concentration that produces a half-maximal response. The Kd is a measure of binding affinity in units of concentration. High values mean a looser complex, low ones a tighter complex. For orientation: IC50 means the midpoint of a concentration-inhibition curve.
